Here are results for 1 molecule from patent US20260365755 (published 2026).

In one experiment the target is C1q (human, UniProt P02745). The experiment can be described thus: BLI. Background: In BLI a coated tip is dipped into the sample, and binding shifts an interference pattern.
For another experiment, the target named is FcγRIIIa (human, UniProt P08637). Kind of experiment: BLI.
The next experiment addresses T1, FcγRIIa (human, UniProt P12318).
T1 chain: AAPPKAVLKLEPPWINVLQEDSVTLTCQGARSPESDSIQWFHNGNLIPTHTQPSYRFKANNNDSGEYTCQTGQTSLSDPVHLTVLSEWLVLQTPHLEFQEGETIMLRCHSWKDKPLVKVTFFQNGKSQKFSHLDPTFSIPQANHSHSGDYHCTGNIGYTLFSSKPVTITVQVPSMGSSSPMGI
Kind of experiment: BLI.

The target of another experiment is FcRn (human, UniProt P55899). Kind of experiment: BLI.
A further experiment has as its target T2, VEGF165 (human, UniProt P15692).
T2 chain: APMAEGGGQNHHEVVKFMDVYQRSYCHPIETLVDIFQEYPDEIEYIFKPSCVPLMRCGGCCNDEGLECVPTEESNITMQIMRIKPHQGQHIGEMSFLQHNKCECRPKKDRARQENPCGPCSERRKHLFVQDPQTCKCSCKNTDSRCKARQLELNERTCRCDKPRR
The experiment can be described thus: ELISA. On the technique in general: An ELISA detects its analyte on a solid surface through an enzyme-linked reagent.

Chain of C1q (P02745 23-245, chain 1 of 3): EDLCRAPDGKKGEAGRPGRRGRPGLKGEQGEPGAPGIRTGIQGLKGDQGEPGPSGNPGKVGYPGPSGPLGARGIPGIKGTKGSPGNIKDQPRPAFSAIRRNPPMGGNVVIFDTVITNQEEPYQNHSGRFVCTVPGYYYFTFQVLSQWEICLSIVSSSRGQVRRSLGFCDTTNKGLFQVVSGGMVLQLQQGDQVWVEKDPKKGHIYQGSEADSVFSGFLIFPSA
Chain of C1q (P02746 28-253, chain 2 of 3, further chain): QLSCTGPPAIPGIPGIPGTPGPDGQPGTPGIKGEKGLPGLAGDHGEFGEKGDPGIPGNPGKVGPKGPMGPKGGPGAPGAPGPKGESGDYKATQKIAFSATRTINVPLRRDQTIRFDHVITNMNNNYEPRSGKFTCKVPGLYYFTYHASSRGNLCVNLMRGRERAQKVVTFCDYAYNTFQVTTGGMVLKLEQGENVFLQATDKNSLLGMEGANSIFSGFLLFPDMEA
Chain of C1q (P02747 29-245, chain 3 of 3, further chain): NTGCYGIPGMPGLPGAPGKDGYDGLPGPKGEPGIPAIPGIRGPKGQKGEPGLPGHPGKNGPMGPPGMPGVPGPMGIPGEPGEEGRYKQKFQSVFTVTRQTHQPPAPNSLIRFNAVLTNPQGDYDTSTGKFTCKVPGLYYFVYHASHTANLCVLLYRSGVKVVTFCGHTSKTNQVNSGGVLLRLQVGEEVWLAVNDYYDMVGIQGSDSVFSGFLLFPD
Chain of FcγRIIIa (P08637 17-208): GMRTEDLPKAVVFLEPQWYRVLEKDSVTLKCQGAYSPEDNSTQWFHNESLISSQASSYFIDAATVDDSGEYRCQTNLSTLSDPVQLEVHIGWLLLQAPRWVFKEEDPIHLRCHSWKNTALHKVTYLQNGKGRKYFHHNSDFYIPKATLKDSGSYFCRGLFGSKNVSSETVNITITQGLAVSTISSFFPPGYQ
Chain of FcRn (P55899 24-297, chain 1 of 2): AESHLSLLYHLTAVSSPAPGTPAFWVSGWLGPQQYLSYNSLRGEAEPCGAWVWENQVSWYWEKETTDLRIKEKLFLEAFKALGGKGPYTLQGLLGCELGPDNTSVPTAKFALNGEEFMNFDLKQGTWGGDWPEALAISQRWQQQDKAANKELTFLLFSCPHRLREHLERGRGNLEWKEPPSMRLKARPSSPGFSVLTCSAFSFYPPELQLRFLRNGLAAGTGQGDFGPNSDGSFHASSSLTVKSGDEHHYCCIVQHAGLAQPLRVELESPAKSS
Chain of FcRn (chain, as listed by the source, chain 2 of 2): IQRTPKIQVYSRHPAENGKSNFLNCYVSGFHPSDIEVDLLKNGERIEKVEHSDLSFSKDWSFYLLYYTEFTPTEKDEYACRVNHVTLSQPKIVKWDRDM

B1: Q-SBL-129 (antibody)
chain 1: not shown
chain 2: not shown
chain 3: EVQLVESGGGLVQPGGSLRLSCAASGYTFTNYGMNWVRQAPGKGLEWVGWINTYTGEPTYAADFKRRFTFSLDTSKSTAYLQMNSLRAEDTAVYYCAKYPHYYGSSHWYFDVWGQGTLVTVSSASTKGPSVFPLAPSSKSTSGGTAALGCLVKDYFPEPVTVSWNSGALTSGVHTFPAVLQSSGLYSLSSVVTVPSSSLGTQTYICNVNHKPSNTKVDKKVEPKSCDKTHTCPPCPAPELLGGPSVFLFPPKPKDTLMISRTPEVTCVVVDVSHEDPEVKFNWYVDGVEVHNAKTKPREEQYNSTYRVVSVLTVLHQDWLNGKEYKCKVSNKALPAPIEKTISKAKGQPREPQVCTLPPSREEMTKNQVSLWCLVKGFYPSDIAVEWESNGQPENNYKTTPPVLFSDGSFFLYSKLTVDKSRWQQGNVFSCSVMHEALHNHYTQKSLSLSPGK
chain 4: not shown
Turning to B1, the Kd with C1q turned out to be 16 nM; in the experiment with FcγRIIIa, 290 nM; with FcγRIIa, 1670 nM; with FcRn it was 700 nM. In addition, the EC50 in the experiment with VEGF165 was found to be 0.17 nM.

A word on the Kd: it is the equilibrium constant for the complex coming apart. For orientation: EC50 means the concentration that produces a half-maximal response. Read a low EC50 as a more potent agent.
